{"source": "patent US11091512B2", "about": "“Modulation of antigen immunogenicity by deleting epitopes recognized by NKT cells” (Imnate Sarl, priority 2010, dated 2021)", "molecules": {"B1": {"name": "SEQ ID22: mutated counterpart of the IgG4 antibody, position 1 residues of SEQ ID18 and SEQ ID20 motifs mutated to serine (protein, listed as Homo sapiens)", "chain": "ASTKGPSVFPLAPCSRSTSESTAALGCLVKDYFPEPVTVSWNSGALTSGVHTFPAVLQSSGLYSLSSVVTVPSSSLGTKTYTCNVDHKPSNTKVDKRVESKYGPPCPSCPAPEFLGGPSVFLFPPKPKDTLMISRTPEVTCVVVDVSQEDPEVQFNWYVDGVEVHNAKTKPREEQFNSTSRVVSVLTVLHQDWLNGKEYKCKVSNKGLPSSIEKTISKAKGQPREPQVYTLPPSQEEMTKNQVSLTCLVKGFYPSDIAVEWESNGQPENNYKTTPPVLDSDGSFFLYSRLTVDKSRWQEGNVFSCSVMSEALHNHYTQKSLSLSLGK"}}, "test_system": "CD4+ T cells and NKT cells", "assay": "peripheral blood CD4+ T cells cultured with human dendritic cells loaded with natural or mutated antibody", "type": "cell-based", "details": "5 to 7 days culture", "description": "Monoclonal human antibodies of the IgG4 isotype were derived from the peripheral blood B lymphocytes by transformation with the Epstein-Barr virus. The genomic sequence of such antibodies was obtained from transformed B cells. A viral vector containing the corresponding cDNA sequence was constructed and used for transfection of CHO cells. All these methods are known in the art (see for instance, Jacquemin et al Blood 92: 496-506, 1998).\nThe hydrophobic aminoacid residues located in position 1 in the peptides of SEQ ID18 and SEQ ID20 were mutated to a serine and the mutated antibody produced by transfected CHO cells.\nPeripheral blood CD4+ T cells obtained as above were exposed in culture medium to human dendritic cells (derived from human peripheral blood monocytes by methods known in the art) and loaded with either the antibody in natural configuration (SEQ ID21) or its mutated counterpart (SEQ ID22). After culturing the cells with CD4+ T cells for 5 to 7 days, the population of CD4+ T cells activated by either natural or mutated antibody was evaluated. CD4+ NKT cells were separated from CD4+ T cells using an antibody to NKG2D, a surface marker associated with NK or NKT cells only.", "data": [{"molecule": "B1", "values": [{"measurement": "activation of class II restricted CD4+ T cells", "result": "only activate class II restricted CD4+ T cells"}, {"measurement": "activation of NKT cells", "setting": "NKT cells separated with antibody to NKG2D", "result": "not NKT cells"}]}]}
